Reference: patent US9382304B2, “Engineered polypeptides having enhanced duration of action with reduced immunogenicity” (priority 2011, dated 2016)
Where two headings read alike, the source gives them in different places.

How the values were obtained:
NIH/Swiss mice = assay: OGTT DOA (oral glucose tolerance test duration of action); assay type: in vivo, mouse; conditions: dosed 24 hours before OGTT, even at higher doses
Text: Water and a standard pelleted mouse chow diet were available ad libitum, except as noted. […] Significant treatment effects were identified by ANOVA (p<0.05).

[1] = human, in vivo; cited from earlier work
[2] = rabbit, in vivo; cited from earlier work
[3] = mouse, in vivo; cited from earlier work
[4] = rat, in vivo; cited from earlier work
[5] = system: IgG molecules present in normal human sera; assay: Serum response analysis by ELISA (IgG binding to albumin binding polypeptides); conditions: 126 sera positive for one or more albumin binding polypeptides; sera diluted 50 times
Method: The percentage of human serum containing IgG, capable of binding to a set of albumin binding polypeptides as disclosed herein was analyzed by ELISA.
The plates were coated over night […] at 4° C. On the day of analysis, the plates were washed twice with tap water and blocked for 2 hours with 100 μl of phosphate buffered saline (PBS) containing 0.05% casein (PBSC). […] After incubation for two hours at room temperature (RT), the plates were washed in PBSC four times using an automated ELISA washer. […] 50 μl of the diluted sera was added per well according to the pre-made plate layout. Each serum sample was tested as a singlet. Positive and negative controls were included on each plate and for each albumin binding polypeptide. […] The plates were incubated for one hour at RT and subsequently washed four times in PBSC using an automated ELISA washer.

GLP-1 receptor = target: T1, GLP-1 receptor (Rattus norvegicus, UniProt P32301); assay: GLP-1 receptor functional assay (cAMP induction, HTRF) in rat thyroid carcinoma 6-23 (clone 6) cells; assay type: cell-based
T1 construct: functional activity was determined using cells that endogenously express GLP-1R; endogenous in cells; host or cells: rat thyroid carcinoma 6-23 (clone 6) cells (ATCC CRL-1607)
T1 sequence (P32301 22-463): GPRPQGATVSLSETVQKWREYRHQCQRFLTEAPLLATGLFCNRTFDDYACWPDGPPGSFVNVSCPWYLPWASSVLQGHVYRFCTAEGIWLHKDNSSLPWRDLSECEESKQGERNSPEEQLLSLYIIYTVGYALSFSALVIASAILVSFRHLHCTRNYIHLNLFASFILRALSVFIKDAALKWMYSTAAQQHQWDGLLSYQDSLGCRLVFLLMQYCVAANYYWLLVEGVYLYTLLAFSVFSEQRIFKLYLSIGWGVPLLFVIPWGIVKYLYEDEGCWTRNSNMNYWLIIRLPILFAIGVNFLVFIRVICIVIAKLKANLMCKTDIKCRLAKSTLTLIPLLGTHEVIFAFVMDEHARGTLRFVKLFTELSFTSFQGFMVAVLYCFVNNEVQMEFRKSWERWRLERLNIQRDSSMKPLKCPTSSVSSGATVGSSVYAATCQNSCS
Method: In another embodiment the cell-based assay is a homogeneous time-resolved fluorescence assay (HTRF®). HTRF® kits are commercially available from Cisbio International (Bedford, Mass.). […] See worldwideweb.htrf.com/products/gper/camp/, the disclosure of which is incorporated by reference herein. […] The HTRF® standards and calibrations are prepared following the instructions in the kit. Assays may be performed with or without the presence of albumin.
See for example United States Patent Application Publication US20110097751A1, incorporated by reference for the assay method. In this example, functional activity was determined using cells that endogenously express GLP-1R, and cAMP induction is detected as a measure of exendin activity.
The data above was determined in the presence of about 0.1% bovine serum albumin (BSA).

Which “activity in OGTT DOA when dosed at t-24 hours” value (NIH/Swiss mice) does the source give for “GSLAEAKEAANAELDSYGVSDFYKRLIDKAKTVEGVEALKDAILAALP [PEP07986]” here?
Its value is “inactive”.

What does the source list for albumin?
half-life [1]: 456 h; half-life [2]: 134 h; half-life [3]: 24 h; half-life [4]: 45.6 h

With “rabbit serum albumin: rabbit serum albumin” as the molecule, how does the half-life [2] read?
The half-life was “about 5 days”.

For `CC[C@H](C)[C@H](NC(=O)[C@H](C)NC(=O)[C@H](CC(=O)O)NC(=O)[C@H](CCCCN)NC(=O)[C@H](CC(C)C)NC(=O)[C@H](C)NC(=O)[C@H](CCC(=O)O)NC(=O)[C@@H](NC(=O)CNC(=O)[C@H](CCC(=O)O)NC(=O)[C@@H](NC(=O)[C@@H](NC(=O)[C@H](CCCCN)NC(=O)[C@H](C)NC(=O)[C@H](CCCCN)NC(=O)[C@H](CC(=O)O)NC(=O)[C@@H](NC(=O)[C@H](CC(C)C)NC(=O)[C@H](CCCNC(=N)N)NC(=O)[C@H](CCCCN)NC(=O)[C@H](Cc1ccc(O)cc1)NC(=O)[C@H](Cc1ccccc1)NC(=O)[C@H](CC(=O)O)NC(=O)[C@H](CO)NC(=O)[C@@H](NC(=O)CNC(=O)[C@H](Cc1ccc(O)cc1)NC(=O)[C@H](CSC1CC(=O)N(CCNC(=O)CN2CCN(CC(=O)O)CCN(CC(=O)O)CCN(CC(=O)O)CC2)C1=O)NC(=O)[C@H](CC(=O)O)NC(=O)[C@H](CC(C)C)NC(=O)[C@H](CCC(=O)O)NC(=O)[C@H](C)NC(=O)[C@H](CC(N)=O)NC(=O)[C@H](C)NC(=O)[C@H](C)NC(=O)[C@H](CCC(=O)O)NC(=O)[C@H](CCCCN)NC(=O)[C@H](C)NC(=O)[C@H](CO)NC(=O)[C@H](C)NC(=O)[C@H](CC(C)C)NC(=O)CN)C(C)C)[C@@H](C)CC)[C@@H](C)O)C(C)C)C(C)C)C(=O)N[C@@H](CC(C)C)C(=O)N[C@@H](C)C(=O)N[C@@H](C)C(=O)N[C@@H](CC(C)C)C(=O)N1CCC[C@H]1C(=O)O` (some centres unmarked) [PEP07968], which “IgG binding reactivity (average OD-value, percentage of serum with IgG binding)” value [5] is on record?
The value was “least reactivity”.

And the immunogenicity definition (CD3+ CD4+ T cells)?
The immunogenicity definition was “non-immunogenic”.

And the “number of donors in which CD3+ CD4+ T cells proliferation was induced, compared to the albumin control” value (CD3+ CD4+ T cells)?
The value was 1 donors.

B1: HGEGTFTSDLSKQLEEEAVRLFIEWLKNTGGGGSASGSLAEAKEAANAELDSYGVSDFYKRLIDKAKTVEGVEALKDAILAALP (protein)
chain: HGEGTFTSDLSKQLEEEAVRLFIEWLKNTGGGGSASGSLAEAKEAANAELDSYGVSDFYKRLIDKAKTVEGVEALKDAILAALP
What does the source list for B1?
in vitro activity against the GLP-1 receptor (GLP-1 receptor): active in vitro; activity in OGTT DOA when dosed at t-24 hours (NIH/Swiss mice): did not display 24 duration
